These results are taken from patent US20040133357A1 (ABMAXIS, published 2004).

The target of assay [1] is T1, purified recombinant human VEGF165 (human, UniProt P15692 27-191, glycosylated).
T1 construct: mature; Bought from Calbiochem; also called VEGF protein (Calbiochem); homodimeric VEGF protein
In words: SPR (BIAcore), purified scFv over VEGF immobilized on CM5 chip, 35 C. On the procedure:
Antibody fragments in the format of single chain were expressed as described below and purified. The measurement was done by measuring the change of SPR units (y-axis) vs time (x-axis) when a purified antibody binds its antigen (VEGF) immobilized on the CM5 biochip at 35° C. Kd values were calculated by the […].
(§1) BIAcore Biosensor Assay was used to determine antibody affinity. VEGF protein (purchased from Calbiochem) was coupled to a CM-5 biosensor ship by amine coupling. After immobilization, CM-5 chips with 200 to 1000 response unites of VEGF were kept at 4° C. before use. All experiments were performed at 25° C. or 35° C. Each sample in PBS buffer was injected over VEGF surface at a flow rate of 20 ul/min using Biacore 1000 (Biacore AB, Sweden), and bound antibodies were removed from chip by 10 ul of glycine-HCl, PH 1.5 at the end of each cycle. Each sensorgram was recorded and normalized to a PBS base line.
In general terms: In SPR one partner is held on a chip, and binding of the other changes the refractive index at the surface.

Assay [2] concerns the target T1, purified recombinant human VEGF165. The assay is described as follows: SPR (BIAcore), scFv over VEGF immobilized on CM5 chip; reference hAB1. On the procedure:
(§2) Antibody fragments in the format of single chain were expressed as described below and purified. The measurement was done by measuring the change of SPR units (y-axis) vs time (x-axis) when a purified antibody binds its antigen (VEGF) immobilized on the CM5 biochip at 25° C. Kd values were calculated by the […].
as §1

Assay [3] shares this target. The assay is described as follows: SPR (BIAcore), scFv over VEGF immobilized on CM5 chip, 25 C; reference hAB1. On the procedure: as §1
Assay [4] shares this target. In words: SPR (BIAcore), purified scFv over VEGF immobilized on CM5 chip, 25 C. On the procedure:
as §2, §1

Numbering of substitutions follows the chain as printed.

T1 sequence (P15692 other isoform, or with tags, fused parts or gaps limits assumed): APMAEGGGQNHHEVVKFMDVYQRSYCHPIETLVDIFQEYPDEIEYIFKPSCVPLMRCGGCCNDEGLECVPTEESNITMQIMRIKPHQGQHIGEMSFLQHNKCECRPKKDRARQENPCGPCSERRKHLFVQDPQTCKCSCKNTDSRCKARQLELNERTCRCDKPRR

B1: hAB15 (scFv)
scFv: EVQLVQSGGGVVQPGGSLRLSCAASGYTFTNYGMNWIRQAPGKGLEWVGWINTYTGEPTYAADFKRRVTFSLDTSKSTAYLQLNSLRAEDTAVYYCAKYPYYYGRSHWYFDVWGQGTLVTVSSGGGGSGGGGSGGGGSDIVMTQSPSTLSASPGERATITCHASQSISTYLAWYQQKPGQAPRVLIYGASNLASGVPNRFSGSGSGTDFTLTISSLQPEDFAVYYCQQYNSAPWTFGGGTKVEIK
notes: Single chain format; not shown: HA-His6 tag at C-terminus
For orientation: Kd means a measure of binding affinity in units of concentration. Broadly, the koff is a measure of how fast the partners let go of each other. For orientation: kon means the rate constant with which the complex forms. Consider B1, for which, in assay [1], the Kd was 3.7 nM, the “hAB1 Kd/Variant Kd” value was 11.2, the koff worked out at 8.6e-05 s⁻¹ and the kon was 23400 M⁻¹ s⁻¹.

B2: hAB14 (scFv)
scFv: EVQLVQSGGGVVQPGGSLRLSCAASGYTFTNYGMNWIRQAPGKGLEWVGWINTYTGEPTYAADFKRRVTFSLDTSKSTAYLQLNSLRAEDTAVYYCAKYPYYYGRSHWYFDVWGQGTLVTVSSGGGGSGGGGSGGGGSAIRMTQSPSSVSASVGDTVTIACRASQAIRNDLTWYQQKPGTAPKLLIYGATTLQSGVPSRFSGSGSGTDFTLTISSLQPEDFATYYCQQSSTTPWTFGQGTKVDIK
notes: as for B1
As to B2, in assay [1], the equilibrium dissociation constant (Kd) turned out to be 3.6 nM, the “hAB1 Kd/Variant Kd” value came to 11.5, the koff is 6.2e-05 s⁻¹ and the on-rate constant (kon) was 17100 M⁻¹ s⁻¹.

B3: hAB35 (scFv)
scFv: EVQLVQSGGGVVQPGGSLRLSCAASGYDFTHFGLNWIRQAPGKGPEWVGWINTYTGEPTYAQDFKRRVTFSLDTSKSTAYLQLNSLRAEDTAVYYCAKYPYYYGRSHWYFDVWGQGTLVTVSSGGGGSGGGGSGGGGSDIVMTQSPSTLSASPGERATITCNASQSIGSYLAWYQQKPGQAPKVLIYGASNLASGVPSRFSGSRSGTDFTLTISSLQPEDFAVYYCQQYNSTPWTFGGGTKLEIK
notes: as for B1
Turning to B3, in assay [1], the Kd was 0.7 nM, the “hAB1 Kd/Variant Kd” value was 59.1, the off-rate (koff) stood at 6.2e-05 s⁻¹ and the kon is 82800 M⁻¹ s⁻¹.

B4: hAB38 (scFv)
scFv: B3 scFv with D28N, T30S, I37L, Q62P, D63E
notes: as for B1
Regarding B4, in assay [1], the equilibrium dissociation constant (Kd) amounted to 0.9 nM, the “hAB1 Kd/Variant Kd” value turned out to be 46, the koff is 4.8e-05 s⁻¹ and the kon was determined as 50000 M⁻¹ s⁻¹.

B5: hAB39 (scFv)
scFv: B3 scFv with I37V, P45L, I51V, P58T, Q62H, D63E
notes: as for B1
For the molecule B5, in assay [1], the equilibrium dissociation constant (Kd) is 1.8 nM, the “hAB1 Kd/Variant Kd” value is 23, the koff stood at 4.8e-05 s⁻¹ and the on-rate constant (kon) came to 28400 M⁻¹ s⁻¹.

B6: hAB16 (scFv)
scFv: B3 scFv with D28T, H31N, F32Y, L34M, P45L, Q62A
notes: as for B1
As to B6, in assay [1], the equilibrium dissociation constant (Kd) was determined as 1.6 nM, the “hAB1 Kd/Variant Kd” value amounted to 25.9, the koff stood at 4.7e-05 s⁻¹ and the kon amounted to 29300 M⁻¹ s⁻¹.

B7: hAB36 (scFv)
scFv: B3 scFv with F29L, T30S, F32Y, Q62P, K65T
notes: as for B1
Consider B7, for which, in assay [1], the Kd turned out to be 0.7 nM, the “hAB1 Kd/Variant Kd” value was determined as 59.1, the koff was found to be 3.7e-05 s⁻¹ and the association rate constant (kon) came to 47500 M⁻¹ s⁻¹.

B8: hAB37 (scFv)
scFv: B3 scFv with D28N, T30S, I37L, P45L, T55N, P58T, Q62P
notes: as for B1
Regarding B8, in assay [1], the Kd came out at 0.8 nM, the “hAB1 Kd/Variant Kd” value is 51.8, the off-rate (koff) was 4.4e-05 s⁻¹ and the on-rate constant (kon) was 57300 M⁻¹ s⁻¹.

B9: hAB3 (scFv)
scFv: EVQLVQSGGGVVQPGGSLRLSCAASGYTFTNYGMNWIRQAPGKGLEWVGWINTYTGEPTYAADFKRRVTFSLDTSKSTAYLQLNSLRAEDTAVYYCAKYPHYYGSSHWYFDVWGQGTLVTVSSGGGGSGGGGSGGGGSDIQMTQSPSSLSASVGDRVTITCSASQDISNYLNWYQQKPGKAPKVLIYFTSSLHSGVPSRFSGSGSGTDFTLTISSLQPEDFATYYCQQYSTVPWTFGQGTKVEIK
notes: as for B1
With B9, in assay [2], the “fold higher binding affinity than hAB1” value is 4 fold. In assay [3], the “fold higher binding affinity than the parental/reference antibody (hAB1)” value is approximately 4 fold. Further, in assay [4], the Kd was determined as 3.1 nM, the “hAB1 Kd/Variant Kd” value was 4.2, the koff was determined as 0.000115 s⁻¹ and the association rate constant (kon) is 37400 M⁻¹ s⁻¹.

B10: hAB11 (scFv)
scFv: B9 scFv with Q6E, V11L, I37V, V68F, L83M, S105R
notes: as for B1
On to B10, for which, in assay [4], the dissociation constant Kd turned out to be 5.4 nM, the “hAB1 Kd/Variant Kd” value is 2.6, the off-rate (koff) stood at 8.7e-05 s⁻¹ and the kon worked out at 15900 M⁻¹ s⁻¹.

B11: hAB7 (scFv)
scFv: B9 scFv with I37V, V68F, L83M, H101Y, S105R
notes: as for B1
As for B11, in assay [1], the dissociation constant (Kd) is 1.1 nM, the “hAB1 Kd/Variant Kd” value came out at 37.6, the koff turned out to be 9e-06 s⁻¹ and the on-rate (kon) stood at 8500 M⁻¹ s⁻¹.

B12: hAB4 (scFv)
scFv: B9 scFv with E1Q, S21T, I37V, V68F, F70I, T78Q, L83M
notes: as for B1
Regarding B12, in assay [2], the “fold higher binding affinity than hAB1” value was 2 fold. In addition, in assay [4], the Kd amounted to 26 nM, the “hAB1 Kd/Variant Kd” value is 0.5, the dissociation rate constant (koff) turned out to be 0.000104 s⁻¹ and the kon is 4000 M⁻¹ s⁻¹.

B13: hAB9 (scFv)
scFv: B9 scFv with I37V, V68F, L83M, H101Y, S105R, M142L, V153A, T160S, K183Q, V184L
notes: as for B1
As to B13, in assay [4], the Kd amounted to 4.9 nM, the “hAB1 Kd/Variant Kd” value is 2.7, the off-rate constant (koff) came out at 1.4e-05 s⁻¹ and the kon is 2900 M⁻¹ s⁻¹.

B14: hAB10 (scFv)
scFv: B9 scFv with Q6E, V11L, I37V, V68F, L83M, H101Y, S105T
notes: as for B1
Regarding B14, in assay [4], the Kd stood at 2.2 nM, the “hAB1 Kd/Variant Kd” value came out at 6.3, the off-rate constant (koff) turned out to be 3e-06 s⁻¹ and the kon came to 1100 M⁻¹ s⁻¹.

B15: hAB8 (scFv)
scFv: B9 scFv with H101Y, S105R
notes: as for B1
Take B15: in assay [1], the dissociation constant (Kd) was 1.1 nM, the “hAB1 Kd/Variant Kd” value came out at 37.6, the off-rate (koff) came out at 1.7e-05 s⁻¹ and the kon worked out at 15800 M⁻¹ s⁻¹.

B16: hAB5 (scFv)
scFv: B9 scFv with S17T, S21T, I37V, L83M
notes: as for B1
As for B16, in assay [4], the dissociation constant (Kd) is 5.9 nM, the “hAB1 Kd/Variant Kd” value came to 2.2, the koff was 7.2e-05 s⁻¹ and the on-rate constant (kon) is 12200 M⁻¹ s⁻¹.

B17: hAB12 (scFv)
scFv: B9 scFv with Q6E, V11L, I37V, V68F, L83M, H101Y, S105R
notes: as for B1
Take B17: in assay [4], the Kd is 1.5 nM, the “hAB1 Kd/Variant Kd” value was 9.2, the koff turned out to be 3e-06 s⁻¹ and the kon is 2300 M⁻¹ s⁻¹.
